Target: T1, His-tagged Stx 2B-subunit (wild type) (enterohemorrhagic Escherichia coli O157:H7), P09386
T1 chain: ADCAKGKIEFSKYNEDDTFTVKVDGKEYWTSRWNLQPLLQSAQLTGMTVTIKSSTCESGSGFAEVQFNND

Question: Which RUmax does the source give for MAPPRRNRRA (modifications not checked) [(Met-Ala-PPRRNRR-Ala-AHA-)4-3Lys] here?
Answer: The RUmax was 1350 AU.

Question: MAKRRNPRRA (modifications not checked) [(Met-Ala-KRRNPRR-Ala-AHA-)4-3Lys] was tested. Which RUmax did it give?
Answer: The RUmax was 1290 AU.

Question: Which RUmax does the source give for MAPPPRRRRA (modifications not checked) [(Met-Ala-PPPRRRR-Ala-AHA-)4-3Lys] here?
Answer: Its RUmax is 1250 AU.

Question: With MAFRRNRRNA (modifications not checked) [(Met-Ala-FRRNRRN-Ala-AHA-)4-3Lys] as the binder, how does the RUmax read?
Answer: Its RUmax is 1490 AU.
